From article PMC5696371, “The HSF1–PARP13–PARP1 complex facilitates DNA repair and promotes mammary tumorigenesis” (Nature Communications, 2017) come the findings set out here.

The target of this test is T1, hPARP13-His (human, UniProt Q7Z2W4 1-902).
T1 construct: human PARP13 cDNA in pET21a, His tag at the C terminus; also called His-tagged hPARP13; source: E. coli, purified (Ni Sepharose 6 Fast Flow); not shown: His, C-terminal, kept
The test is described as follows: pull-down; purified GST fusion proteins and purified hPARP13-His mixed in NT buffer (50 mM Tris-HCl pH 7.5, 150 mM NaCl, 1 mM EDTA, 0.5% NP40) for 1 h at 4 °C, then glutathione-sepharose beads 2 h at 4 °C; immunoblotting. As to conditions: both partners purified.

T1 sequence (Q7Z2W4 whole entry): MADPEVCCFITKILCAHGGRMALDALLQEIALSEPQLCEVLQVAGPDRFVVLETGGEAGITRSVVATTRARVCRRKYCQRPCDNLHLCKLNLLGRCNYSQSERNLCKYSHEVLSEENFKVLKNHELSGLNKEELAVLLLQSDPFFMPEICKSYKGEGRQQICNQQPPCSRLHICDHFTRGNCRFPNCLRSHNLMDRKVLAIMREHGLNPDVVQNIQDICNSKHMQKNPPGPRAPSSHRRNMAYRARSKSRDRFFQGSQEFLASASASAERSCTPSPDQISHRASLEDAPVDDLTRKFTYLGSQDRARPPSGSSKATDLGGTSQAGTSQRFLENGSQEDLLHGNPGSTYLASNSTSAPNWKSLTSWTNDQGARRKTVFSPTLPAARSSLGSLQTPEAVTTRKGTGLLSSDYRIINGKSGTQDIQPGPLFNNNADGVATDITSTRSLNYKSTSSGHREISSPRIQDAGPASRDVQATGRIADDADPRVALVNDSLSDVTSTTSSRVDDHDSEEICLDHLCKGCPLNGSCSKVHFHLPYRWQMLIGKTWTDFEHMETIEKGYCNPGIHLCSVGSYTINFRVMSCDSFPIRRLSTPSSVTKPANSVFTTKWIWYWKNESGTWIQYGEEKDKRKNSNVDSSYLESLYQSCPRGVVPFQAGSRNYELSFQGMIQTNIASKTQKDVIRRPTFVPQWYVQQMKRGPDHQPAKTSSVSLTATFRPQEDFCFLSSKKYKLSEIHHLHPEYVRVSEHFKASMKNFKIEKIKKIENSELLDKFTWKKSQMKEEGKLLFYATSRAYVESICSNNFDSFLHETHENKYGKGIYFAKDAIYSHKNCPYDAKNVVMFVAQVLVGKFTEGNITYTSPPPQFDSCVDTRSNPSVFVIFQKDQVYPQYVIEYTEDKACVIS

B1: GST-hHSF1 (natural protein, human, UniProt Q00613 1-529, looked up)
chain: MDLPVGPGAAGPSNVPAFLTKLWTLVSDPDTDALICWSPSGNSFHVFDQGQFAKEVLPKYFKHNNMASFVRQLNMYGFRKVVHIEQGGLVKPERDDTEFQHPCFLRGQEQLLENIKRKVTSVSTLKSEDIKIRQDSVTKLLTDVQLMKGKQECMDSKLLAMKHENEALWREVASLRQKHAQQQKVVNKLIQFLISLVQSNRILGVKRKIPLMLNDSGSAHSMPKYSRQFSLEHVHGSGPYSAPSPAYSSSSLYAPDAVASSGPIISDITELAPASPMASPGGSIDERPLSSSPLVRVKEEPPSPPQSPRVEEASPGRPSSVDTLLSPTALIDSILRESEPAPASVTALTDARGHTDTEGRPPSPPPTSTPEKCLSVACLDKNELSDHLDAMDSNLDNLQTMLSSHGFSVDTSALLDLFSPSVTVPDMSLPDLDSSLASIQELLSPQEPPRPPEAENSSPDSGKQLVHYTAQPLFLLDPGSVDTGSNDLPVLFELGEGSYFSEGDGFAEDPTISLLTGSEPPKAKDPTVS
notes: human HSF1 fused to GST; the legend marks 'full-length GST-fusion proteins'; source: E. coli, purified (Glutathione Sepharose 4B)
Consider B1, for which the binding result is reported as “binds”.
